In patent US20240409645A1 (DUALYX, published 2024):
Each block holds one binder with its values, some of them ahead of it.

Molecular target: T1, human IL-2 receptor (IL-2Rα/IL-2Rβ/γc) (human, UniProt P01589 22-272; P14784 27-551; P31785 23-369)
T1 sequence 1: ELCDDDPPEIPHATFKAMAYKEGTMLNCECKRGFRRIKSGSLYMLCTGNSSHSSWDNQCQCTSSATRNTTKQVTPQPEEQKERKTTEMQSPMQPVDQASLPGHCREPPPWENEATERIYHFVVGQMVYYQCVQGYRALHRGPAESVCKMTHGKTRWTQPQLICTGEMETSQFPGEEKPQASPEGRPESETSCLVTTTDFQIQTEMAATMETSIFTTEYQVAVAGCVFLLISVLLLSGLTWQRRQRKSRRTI
T1 sequence 2: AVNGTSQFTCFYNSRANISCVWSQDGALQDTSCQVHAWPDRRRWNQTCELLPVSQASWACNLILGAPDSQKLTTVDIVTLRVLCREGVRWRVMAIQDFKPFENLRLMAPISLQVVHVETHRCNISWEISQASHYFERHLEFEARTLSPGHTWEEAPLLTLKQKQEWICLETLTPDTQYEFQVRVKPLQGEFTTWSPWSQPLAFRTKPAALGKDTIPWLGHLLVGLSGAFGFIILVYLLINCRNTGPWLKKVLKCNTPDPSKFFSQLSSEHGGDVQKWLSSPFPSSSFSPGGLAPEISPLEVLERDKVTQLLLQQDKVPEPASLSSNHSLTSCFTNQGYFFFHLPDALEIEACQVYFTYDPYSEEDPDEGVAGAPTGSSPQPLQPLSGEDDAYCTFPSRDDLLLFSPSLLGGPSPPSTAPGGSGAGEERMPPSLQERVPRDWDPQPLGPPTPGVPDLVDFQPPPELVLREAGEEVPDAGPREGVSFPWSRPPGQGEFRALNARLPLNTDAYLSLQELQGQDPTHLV
T1 sequence 3: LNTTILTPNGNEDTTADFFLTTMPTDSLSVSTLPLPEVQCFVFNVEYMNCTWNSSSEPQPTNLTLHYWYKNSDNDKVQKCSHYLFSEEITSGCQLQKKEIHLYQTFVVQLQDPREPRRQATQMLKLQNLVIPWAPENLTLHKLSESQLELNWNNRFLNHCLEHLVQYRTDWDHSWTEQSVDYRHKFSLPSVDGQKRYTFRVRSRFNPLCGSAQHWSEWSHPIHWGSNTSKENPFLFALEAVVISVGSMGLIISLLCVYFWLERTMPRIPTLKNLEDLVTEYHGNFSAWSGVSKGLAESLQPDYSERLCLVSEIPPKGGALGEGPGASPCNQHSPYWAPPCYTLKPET
Test: cell-based or functional assay

B1: DC00047 (other)
chain 1: QVQLVESGGGLVQPGGSLRLSCATSGFTFRNNFMSWVRQAPGKGLEWVSTISYGGESTTYAESVKGRFTISRDNAKNTLYLQMNNLKPEDTAVYYCAKATSYDSIRSGSRGQGTQVTVSSGGGGSGGGGSGGGGSQVQLVESGGGLVQPGGSLRLSCATSGFTFRNNFMSWVRQAPGKGLEWVSTISYGGESTTYAESVKGRFTISRDNAKNTLYLQMNNLKPEDTAVYYCAKATSYDSIRSGSRGQGTQVTVSSDKTHTCPPCPAPEAAGGPSVFLFPPKPKDTLMISRTPEVTCVVVDVSHEDPEVKFNWYVDGVEVHNAKTKPREEQYNSTYRVVSVLTVLHQDWLNGKEYKCKVSNKALGAPIEKTISKAKGQPREPQVYTLPPSRDELTKNQVSLTCLVKGFYPSDIAVEWESNGQPENNYKTTPPVLDSDGSFLLYSKLTVDKSRWQQGNVFSCSVMHEALHNHYTQKSLSLSPGK
chain 2: EVQLVESGGGLVQTGGSLRLSCAASGGTFSRDAMAWFRQVPGKEREFVALISWSGATTNYADSVKGRFAISRDNGKNTVYLQMNRLKPADTAIYYCAADRRPMGSRSYFEPTEYDDWGQGTQVTVSSGGGGSGGGGSGGGGSQVQLVESGGGLVQAGGSLTLSCAAPGRTFGTDVVGWFRQAPGKEREFVASISRSGDGIYYDDSVKGRFTISRNNAWNTVNLQMNSLKVEDTAVYYCAAGDGWSTYDYWGQGTQVTVSSGGGGSGGGGSGGGGSDKTHTCPPCPAPEAAGGPSVFLFPPKPKDTLMISRTPEVTCVVVDVSHEDPEVKFNWYVDGVEVHNAKTKPREEQYNSTYRVVSVLTVLHQDWLNGKEYKCKVSNKALGAPIEKTISKAKGQPREPQVYTLPPSRDELTKNQVSLTCLVKGFYPSDIAVEWESNGQPENNYKTTPPVLDSDGSFFLYSRLTVDKSRWQQGNVFSCSVMHEALHNHYTQKSLSLSPGK
Fold Max signal (% pSTAT5+) Treg/NK: 1 fold | Max signal (% pSTAT5+), NK: 0 % pSTAT5+ | Max signal (% pSTAT5+), Treg: 0 % pSTAT5+

B4: DC00052 (other)
chain 1: B1 chain 1
chain 2: QVQLVESGGGLVQAGGSLTLSCAAPGRTFGTDVVGWFRQAPGKEREFVASISRSGDGIYYDDSVKGRFTISRNNAWNTVNLQMNSLKVEDTAVYYCAAGDGWSTYDYWGQGTQVTVSSGGGGSGGGGSGGGGSQVQLVESGGGLVQPGGSLRLSCATSGFTFRNNFMSWVRQAPGKGLEWVSTISYGGESTTYAESVKGRFTISRDNAKNTLYLQMNNLKPEDTAVYYCAKATSYDSIRSGSRGQGTQVTVSSGGGGSGGGGSGGGGSEVQLVESGGGLVQTGGSLRLSCAASGGTFSRDAMAWFRQVPGKEREFVALISWSGATTNYADSVKGRFAISRDNGKNTVYLQMNRLKPADTAIYYCAADRRPMGSRSYFEPTEYDDWGQGTQVTVSSGGGGSGGGGSGGGGSDKTHTCPPCPAPEAAGGPSVFLFPPKPKDTLMISRTPEVTCVVVDVSHEDPEVKFNWYVDGVEVHNAKTKPREEQYNSTYRVVSVLTVLHQDWLNGKEYKCKVSNKALGAPIEKTISKAKGQPREPQVYTLPPSRDELTKNQVSLTCLVKGFYPSDIAVEWESNGQPENNYKTTPPVLDSDGSFFLYSRLTVDKSRWQQGNVFSCSVMHEALHNHYTQKSLSLSPGK
EC50 (nM) pSTAT5, NK, human PBMCs: 0.0812 nM | EC50 (nM) pSTAT5, Treg, human PBMCs: 0.00403 nM | Fold Max signal (% pSTAT5+) Treg/NK: 8 fold | Max signal (% pSTAT5+), NK: 9 % pSTAT5+ | Max signal (% pSTAT5+), Treg: 79 % pSTAT5+ | fold EC50 NK/Treg: 20 fold

B6: DC00049 (other)
chain 1: B1 chain 1
chain 2: QVQLVESGGGLVQAGGSLTLSCAAPGRTFGTDVVGWFRQAPGKEREFVASISRSGDGIYYDDSVKGRFTISRNNAWNTVNLQMNSLKVEDTAVYYCAAGDGWSTYDYWGQGTQVTVSSGGGGSGGGGSGGGGSEVQLVESGGGLVQTGGSLRLSCAASGGTFSRDAMAWFRQVPGKEREFVALISWSGATTNYADSVKGRFAISRDNGKNTVYLQMNRLKPADTAIYYCAADRRPMGSRSYFEPTEYDDWGQGTQVTVSSGGGGSGGGGSGGGGSDKTHTCPPCPAPEAAGGPSVFLFPPKPKDTLMISRTPEVTCVVVDVSHEDPEVKFNWYVDGVEVHNAKTKPREEQYNSTYRVVSVLTVLHQDWLNGKEYKCKVSNKALGAPIEKTISKAKGQPREPQVYTLPPSRDELTKNQVSLTCLVKGFYPSDIAVEWESNGQPENNYKTTPPVLDSDGSFFLYSRLTVDKSRWQQGNVFSCSVMHEALHNHYTQKSLSLSPGK
EC50 (nM) pSTAT5, NK, human PBMCs: 0.198 nM | EC50 (nM) pSTAT5, Treg, human PBMCs: 0.00336 nM | Fold Max signal (% pSTAT5+) Treg/NK: 4 fold | Max signal (% pSTAT5+), NK: 27 % pSTAT5+ | Max signal (% pSTAT5+), Treg: 95 % pSTAT5+ | fold EC50 NK/Treg: 59 fold

Now from value to binder:

EC50 (nM) pSTAT5, NK, human PBMCs: 0.191 nM | EC50 (nM) pSTAT5, Treg, human PBMCs: < 0.1 pM | Fold Max signal (% pSTAT5+) Treg/NK: 3 fold | Max signal (% pSTAT5+), NK: 33 % pSTAT5+ | Max signal (% pSTAT5+), Treg: 96 % pSTAT5+ | fold EC50 NK/Treg: > 1910 fold
B2: DC00051 (other)
chain 1: B1 chain 1
chain 2: QVQLVESGGGLVQAGGSLTLSCAAPGRTFGTDVVGWFRQAPGKEREFVASISRSGDGIYYDDSVKGRFTISRNNAWNTVNLQMNSLKVEDTAVYYCAAGDGWSTYDYWGQGTQVTVSSGGGGSGGGGSGGGGSEVQLVESGGGLVQTGGSLRLSCAASGGTFSRDAMAWFRQVPGKEREFVALISWSGATTNYADSVKGRFAISRDNGKNTVYLQMNRLKPADTAIYYCAADRRPMGSRSYFEPTEYDDWGQGTQVTVSSGGGGSGGGGSGGGGSQVQLVESGGGLVQPGGSLRLSCATSGFTFRNNFMSWVRQAPGKGLEWVSTISYGGESTTYAESVKGRFTISRDNAKNTLYLQMNNLKPEDTAVYYCAKATSYDSIRSGSRGQGTQVTVSSDKTHTCPPCPAPEAAGGPSVFLFPPKPKDTLMISRTPEVTCVVVDVSHEDPEVKFNWYVDGVEVHNAKTKPREEQYNSTYRVVSVLTVLHQDWLNGKEYKCKVSNKALGAPIEKTISKAKGQPREPQVYTLPPSRDELTKNQVSLTCLVKGFYPSDIAVEWESNGQPENNYKTTPPVLDSDGSFFLYSRLTVDKSRWQQGNVFSCSVMHEALHNHYTQKSLSLSPGK

EC50 (nM) pSTAT5, NK, human PBMCs: 0.0326 nM | EC50 (nM) pSTAT5, Treg, human PBMCs: 0.00134 nM | Fold Max signal (% pSTAT5+) Treg/NK: 7 fold | Max signal (% pSTAT5+), NK: 8 % pSTAT5+ | Max signal (% pSTAT5+), Treg: 56 % pSTAT5+ | fold EC50 NK/Treg: 24 fold
B3: DC00050 (other)
chain 1: B1 chain 1
chain 2: QVQLVESGGGLVQPGGSLRLSCATSGFTFRNNFMSWVRQAPGKGLEWVSTISYGGESTTYAESVKGRFTISRDNAKNTLYLQMNNLKPEDTAVYYCAKATSYDSIRSGSRGQGTQVTVSSGGGGSGGGGSGGGGSEVQLVESGGGLVQTGGSLRLSCAASGGTFSRDAMAWFRQVPGKEREFVALISWSGATTNYADSVKGRFAISRDNGKNTVYLQMNRLKPADTAIYYCAADRRPMGSRSYFEPTEYDDWGQGTQVTVSSGGGGSGGGGSGGGGSQVQLVESGGGLVQAGGSLTLSCAAPGRTFGTDVVGWFRQAPGKEREFVASISRSGDGIYYDDSVKGRFTISRNNAWNTVNLQMNSLKVEDTAVYYCAAGDGWSTYDYWGQGTQVTVSSGGGGSGGGGSGGGGSDKTHTCPPCPAPEAAGGPSVFLFPPKPKDTLMISRTPEVTCVVVDVSHEDPEVKFNWYVDGVEVHNAKTKPREEQYNSTYRVVSVLTVLHQDWLNGKEYKCKVSNKALGAPIEKTISKAKGQPREPQVYTLPPSRDELTKNQVSLTCLVKGFYPSDIAVEWESNGQPENNYKTTPPVLDSDGSFFLYSRLTVDKSRWQQGNVFSCSVMHEALHNHYTQKSLSLSPGK

EC50 (nM) pSTAT5, NK, human PBMCs: 0.176 nM | EC50 (nM) pSTAT5, Treg, human PBMCs: < 0.1 pM | Fold Max signal (% pSTAT5+) Treg/NK: 4 fold | Max signal (% pSTAT5+), NK: 26 % pSTAT5+ | Max signal (% pSTAT5+), Treg: 95 % pSTAT5+ | fold EC50 NK/Treg: > 1760 fold
B5: DC00048 (other)
chain 1: B1 chain 1
chain 2: QVQLVESGGGLVQPGGSLRLSCATSGFTFRNNFMSWVRQAPGKGLEWVSTISYGGESTTYAESVKGRFTISRDNAKNTLYLQMNNLKPEDTAVYYCAKATSYDSIRSGSRGQGTQVTVSSGGGGSGGGGSGGGGSQVQLVESGGGLVQAGGSLTLSCAAPGRTFGTDVVGWFRQAPGKEREFVASISRSGDGIYYDDSVKGRFTISRNNAWNTVNLQMNSLKVEDTAVYYCAAGDGWSTYDYWGQGTQVTVSSGGGGSGGGGSGGGGSEVQLVESGGGLVQTGGSLRLSCAASGGTFSRDAMAWFRQVPGKEREFVALISWSGATTNYADSVKGRFAISRDNGKNTVYLQMNRLKPADTAIYYCAADRRPMGSRSYFEPTEYDDWGQGTQVTVSSGGGGSGGGGSGGGGSDKTHTCPPCPAPEAAGGPSVFLFPPKPKDTLMISRTPEVTCVVVDVSHEDPEVKFNWYVDGVEVHNAKTKPREEQYNSTYRVVSVLTVLHQDWLNGKEYKCKVSNKALGAPIEKTISKAKGQPREPQVYTLPPSRDELTKNQVSLTCLVKGFYPSDIAVEWESNGQPENNYKTTPPVLDSDGSFFLYSRLTVDKSRWQQGNVFSCSVMHEALHNHYTQKSLSLSPGK
